± gives the standard deviation of the averaged measurements.
Legend:
Saccharomyces cerevisiae [1] = assay: protein stability index of tFT-peptide fusion (C-terminal peptide) (PSI (0-1 scale)); higher = more stable (slower turnover); details: genetic background: wild type; temperature: 30 C
Saccharomyces cerevisiae [2] = assay: as above
Description: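 MPS profiling in S. cerevisiae of the tFT-X12 degron library: putative degron peptides plus stable controls, 12 aa, fused to the C-terminus of a sfGFP-mCherry timer. Cells are FACS-sorted into 8 mCherry/sfGFP bins and deep-sequenced. PSI runs from 0 (unstable) to 1 (stable). Backgrounds are wild type, das1Δ and doa10Δ at 30 °C, and wild type, das1Δ, cdc34-1 and cdc53-1 at 37 °C; 2-3 technical replicates each.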

[3] = genetic background: cdc34-1, temperature: 37 C
[4] = genetic background: cdc53-1, temperature: 37 C
[5] = genetic background: das1 deletion, temperature: 30 C
[6] = genetic background: das1 deletion, temperature: 37 C
[7] = genetic background: doa10 deletion, temperature: 30 C
[8] = genetic background: wild type, temperature: 30 C
[9] = genetic background: wild type, temperature: 37 C
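Further: PSI is a weighted mean of sequencing reads over stability bins, variants kept only with over 10 reads, mCherry proximal and sfGFP distal, peptide attached via GGGS linker.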

| Sequence | protein stability index (Saccharomyces cerevisiae [1]) | protein stability index (Saccharomyces cerevisiae [2]; [3]) | protein stability index (Saccharomyces cerevisiae [2]; [4]) | protein stability index (Saccharomyces cerevisiae [2]; [5]) | protein stability index (Saccharomyces cerevisiae [2]; [6]) | protein stability index (Saccharomyces cerevisiae [2]; [7]) | protein stability index (Saccharomyces cerevisiae [2]; [8]) | protein stability index (Saccharomyces cerevisiae [2]; [9]) |
| --- | --- | --- | --- | --- | --- | --- | --- | --- |
| FRHFPLLLSFVR | 0.418 ± 0.062 | 0.428 ± 0.025 | 0.4636 ± 0.0011 | 0.334 ± 0.033 | 0.512 ± 0.01 | 0.324 ± 0.015 | 0.323 ± 0.04 | 0.5 ± 0.0094 |
| FRILVGCRVVLM | 0.426 ± 0.021 | 0.429 ± 0.0069 | 0.51 ± 0.077 | 0.355 ± 0.028 | 0.5047 ± 0.00065 | 0.311 ± 0.0097 | 0.343 ± 0.051 | 0.483 ± 0.016 |
| FSAVVCPTVFLC | 0.185 ± 0.063 | 0.51 ± 0.051 | 0.725 ± 0.019 | 0.603 ± 0.015 | 0.746 ± 0.019 | 0.0928 ± 0.02 | 0.0973 ± 0.022 | 0.0951 ± 0.0051 |
| FSCWLFMLCVFL | 0.393 ± 0.025 | 0.4339 ± 0.0012 | 0.459 ± 0.015 | 0.401 ± 0.013 | 0.466 ± 0.026 | 0.37 ± 0.017 | 0.316 ± 0.023 | 0.454 ± 0.025 |
| FSIFFFLLPSSL | 0.464 ± 0.042 | 0.539 ± 0.03 | 0.559 ± 0.0082 | 0.448 ± 0.017 | 0.604 ± 0.0097 | 0.443 ± 0.028 | 0.441 ± 0.025 | 0.5593 ± 0.0021 |
| FSLFYYIHLSVA | 0.192 ± 0.019 | 0.191 ± 0.002 | 0.211 ± 0.02 | 0.169 ± 0.034 | 0.2771 ± 0.002 | 0.0982 ± 0.0035 | 0.104 ± 0.028 | 0.197 ± 0.0021 |
| FSLGGVPYVFFV | 0.37 ± 0.019 | 0.628 ± 0.05 | 0.694 ± 0.012 | 0.587 ± 0.024 | 0.716 ± 0.01 | 0.195 ± 0.022 | 0.221 ± 0.029 | 0.4579 ± 0.0017 |
| FSLWSRRSITVY | 0.198 ± 0.057 | 0.04947 ± 0.00046 | 0.0405 ± 0.018 | 0.104 ± 0.042 | 0.113 ± 0.019 | 0.0595 ± 0.02 | 0.0899 ± 0.026 | 0.0886 ± 0.049 |
| FSPSHMLRIFCY | 0.294 ± 0.055 | 0.337 ± 0.089 | 0.355 ± 0.067 | 0.286 ± 0.033 | 0.443 ± 0.0051 | 0.1793 ± 0.00023 | 0.212 ± 0.0047 | 0.282 ± 0.0028 |
| FSRPTYYFIRHS | 0.403 ± 0.029 | 0.629 ± 0.048 | 0.696 ± 0.03 | 0.658 ± 0.038 | 0.69 ± 0.011 | 0.26 ± 0.021 | 0.272 ± 0.058 | 0.475 ± 0.048 |
| FSSRVFLIVGIY | 0.427 ± 0.025 | 0.45 ± 0.015 | 0.614 ± 0.05 | 0.33 ± 0.029 | 0.538 ± 0.021 | 0.2266 ± 0.0017 | 0.27 ± 0.023 | 0.4874 ± 0.0027 |
| FVCFSFFFPFLL | 0.237 ± 0.057 | 0.401 ± 0.0099 | 0.441 ± 0.0071 | 0.37 ± 0.033 | 0.5099 ± 0.001 | 0.163 ± 0.01 | 0.148 ± 0.016 | 0.238 ± 0.0042 |
| FVFCTCSFFFLW | 0.477 ± 0.0076 | 0.5113 ± 0.0046 | 0.532 ± 0.011 | 0.421 ± 0.026 | 0.54 ± 0.021 | 0.374 ± 0.004 | 0.393 ± 0.029 | 0.5103 ± 0.00052 |
| FVSGRFLFFFVL | 0.204 ± 0.04 | 0.52 ± 0.029 | 0.675 ± 0.0071 | 0.489 ± 0.018 | 0.699 ± 0.014 | 0.162 ± 0.0036 | 0.144 ± 0.018 | 0.208 ± 0.0074 |
| FVSSLLPLLTLL | 0.293 ± 0.033 | 0.555 ± 0.032 | 0.636 ± 0.013 | 0.608 ± 0.032 | 0.694 ± 0.014 | 0.142 ± 0.0036 | 0.141 ± 0.012 | 0.218 ± 0.0057 |
| FVVVGVLFLCVG | 0.367 ± 0.025 | 0.256 ± 0.0023 | 0.4122 ± 0.00071 | 0.278 ± 0.023 | 0.479 ± 0.011 | 0.258 ± 0.0065 | 0.277 ± 0.03 | 0.442 ± 0.007 |
| FWFSFSFLCHSY | 0.422 ± 0.016 | 0.384 ± 0.022 | 0.4491 ± 0.001 | 0.358 ± 0.032 | 0.4386 ± 0.001 | 0.386 ± 0.02 | 0.38 ± 0.0095 | 0.407 ± 0.02 |
| FYFLSFLLLLSP | 0.176 ± 0.012 | 0.143 ± 0.0096 | 0.132 ± 0.021 | 0.182 ± 0.024 | 0.294 ± 0.0094 | 0.223 ± 0.0038 | 0.156 ± 0.035 | 0.245 ± 0.024 |
| FYGVRFLVCVSA | 0.1575 ± 0.0005 | 0.0202 ± 0.0026 | 0.0332 ± 0.0048 | 0.111 ± 0.037 | 0.117 ± 0.015 | 0.0738 ± 0.018 | 0.105 ± 0.03 | 0.096 ± 0.0045 |
| GAWLAVCVVREG | 0.479 ± 0.022 | 0.493 ± 0.04 | 0.568 ± 0.014 | 0.398 ± 0.023 | 0.589 ± 0.0069 | 0.37 ± 0.007 | 0.405 ± 0.021 | 0.5526 ± 0.0021 |

| Sequence | protein stability index (Saccharomyces cerevisiae [1]) | protein stability index (Saccharomyces cerevisiae [2]; [3]) | protein stability index (Saccharomyces cerevisiae [2]; [4]) | protein stability index (Saccharomyces cerevisiae [2]; [5]) | protein stability index (Saccharomyces cerevisiae [2]; [6]) | protein stability index (Saccharomyces cerevisiae [2]; [7]) | protein stability index (Saccharomyces cerevisiae [2]; [8]) | protein stability index (Saccharomyces cerevisiae [2]; [9]) |
| --- | --- | --- | --- | --- | --- | --- | --- | --- |
| GCILSLCYAVST | 0.389 ± 0.016 | 0.555 ± 0.051 | 0.569 ± 0.024 | 0.332 ± 0.026 | 0.534 ± 0.014 | 0.296 ± 0.0074 | 0.318 ± 0.018 | 0.523 ± 0.013 |
| GCVTFVLISFCA | 0.358 ± 0.016 | 0.238 ± 0.007 | 0.306 ± 0.039 | 0.225 ± 0.03 | 0.425 ± 0.012 | 0.186 ± 0.035 | 0.208 ± 0.027 | 0.386 ± 0.012 |
| GELVLVMYGIWV | 0.351 ± 0.058 | 0.392 ± 0.013 | 0.47 ± 0.0055 | 0.29 ± 0.028 | 0.502 ± 0.013 | 0.238 ± 0.0055 | 0.277 ± 0.033 | 0.458 ± 0.0063 |
| GFESTCSLLCVF | 0.43 ± 0.029 | 0.33 ± 0.026 | 0.348 ± 0.015 | 0.314 ± 0.036 | 0.433 ± 0.001 | 0.264 ± 0.021 | 0.306 ± 0.026 | 0.407 ± 0.013 |
| GFFFFHGLCFFV | 0.43 ± 0.047 | 0.448 ± 0.017 | 0.513 ± 0.028 | 0.382 ± 0.029 | 0.5453 ± 0.0035 | 0.358 ± 0.028 | 0.355 ± 0.023 | 0.526 ± 0.02 |
| GFFFWTMCFWVV | 0.284 ± 0.046 | 0.255 ± 0.01 | 0.349 ± 0.022 | 0.303 ± 0.038 | 0.456 ± 0.011 | 0.204 ± 0.0089 | 0.194 ± 0.02 | 0.322 ± 0.026 |
| GFLVPSSPRCHQ | 0.727 ± 0.0082 | 0.708 ± 0.018 | 0.72 ± 0.039 | 0.6427 ± 0.0046 | 0.72 ± 0.0086 | 0.654 ± 0.018 | 0.681 ± 0.047 | 0.691 ± 0.012 |
| GFSPLFVLVFGV | 0.4261 ± 0.0035 | 0.47 ± 0.012 | 0.486 ± 0.024 | 0.312 ± 0.027 | 0.518 ± 0.012 | 0.333 ± 0.016 | 0.311 ± 0.013 | 0.489 ± 0.011 |
| GGGSASGWRAAA | 0.48 ± 0.025 | 0.665 ± 0.0097 | 0.735 ± 0.015 | 0.633 ± 0.0096 | 0.716 ± 0.027 | 0.344 ± 0.0043 | 0.39 ± 0.022 | 0.639 ± 0.0072 |
| GGKTLSIFLRIS | 0.258 ± 0.0057 | 0.611 ± 0.029 | 0.693 ± 0.021 | 0.554 ± 0.022 | 0.665 ± 0.0095 | 0.14 ± 0.013 | 0.159 ± 0.013 | 0.295 ± 0.017 |
| GGLVVYVWGRWS | 0.457 ± 0.024 | 0.526 ± 0.017 | 0.592 ± 0.025 | 0.383 ± 0.016 | 0.589 ± 0.009 | 0.356 ± 0.021 | 0.377 ± 0.015 | 0.573 ± 0.023 |
| GGLWRRLCLGVG | 0.329 ± 0.041 | 0.4 ± 0.021 | 0.4633 ± 0.0012 | 0.388 ± 0.018 | 0.469 ± 0.011 | 0.3 ± 0.0089 | 0.311 ± 0.016 | 0.453 ± 0.016 |
| GGVCVRMECWMG | 0.496 ± 0.0059 | 0.57 ± 0.036 | 0.629 ± 0.018 | 0.486 ± 0.032 | 0.5789 ± 0.0015 | 0.485 ± 0.03 | 0.496 ± 0.034 | 0.5864 ± 0.0051 |
| GGVVGRPWWYVG | 0.425 ± 0.031 | 0.694 ± 0.023 | 0.79439 ± 0.00012 | 0.677 ± 0.014 | 0.795 ± 0.013 | 0.266 ± 0.015 | 0.301 ± 0.015 | 0.605 ± 0.017 |
| GIFVRIVCIDVA | 0.2651 ± 0.0024 | 0.125 ± 0.0095 | 0.183 ± 0.0066 | 0.178 ± 0.032 | 0.302 ± 0.007 | 0.143 ± 0.0085 | 0.165 ± 0.021 | 0.2851 ± 0.0006 |
| GINYSNKKILVN | 0.444 ± 0.059 | 0.574 ± 0.016 | 0.6729 ± 0.0015 | 0.493 ± 0.027 | 0.691 ± 0.026 | 0.278 ± 0.022 | 0.273 ± 0.033 | 0.57 ± 0.0072 |
| GLCSGTGARWLV | 0.559 ± 0.086 | 0.703 ± 0.0096 | 0.7667 ± 0.0022 | 0.636 ± 0.027 | 0.749 ± 0.018 | 0.52 ± 0.013 | 0.516 ± 0.0084 | 0.701 ± 0.016 |
| GLPRASPLPIPV | 0.517 ± 0.048 | 0.553 ± 0.032 | 0.591 ± 0.006 | 0.447 ± 0.021 | 0.6021 ± 0.0017 | 0.425 ± 0.01 | 0.443 ± 0.016 | 0.57 ± 0.0065 |
| GLRLRCPLLLSL | 0.383 ± 0.028 | 0.354 ± 0.018 | 0.341 ± 0.018 | 0.315 ± 0.049 | 0.47 ± 0.011 | 0.507 ± 0.023 | 0.324 ± 0.013 | 0.425 ± 0.0045 |

Reference: the supplement of paper PMC10724198
